We go through one molecule from paper PMC3311620.

For this assay, the target named is CXCR7-RLuc (human) (UniProt P25106).
Chain of UniProt P25106 (P25106 whole entry): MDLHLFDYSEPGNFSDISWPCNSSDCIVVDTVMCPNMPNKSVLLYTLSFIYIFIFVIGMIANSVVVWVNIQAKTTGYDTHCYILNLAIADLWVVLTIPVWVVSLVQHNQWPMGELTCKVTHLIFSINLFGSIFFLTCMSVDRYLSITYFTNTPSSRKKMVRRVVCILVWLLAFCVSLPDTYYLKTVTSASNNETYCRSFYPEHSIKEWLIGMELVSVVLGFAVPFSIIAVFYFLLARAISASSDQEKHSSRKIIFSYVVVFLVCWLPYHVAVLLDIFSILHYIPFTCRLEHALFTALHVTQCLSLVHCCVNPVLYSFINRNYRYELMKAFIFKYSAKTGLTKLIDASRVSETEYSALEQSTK

B1: CXCL11 (I-TAC) (ligand)
chain: FPMFKRGRCLCIGPGVKAVKVADIEKASIMYPSNNCDKIEVIITLKENKGQRCLNPKSKQARLIIKKVERKNF
B1 had a pEC50 of CXCL11 for β-arrestin1-YFP recruitment to CXCR7-RLuc (BRET, HEK293T) of 8.7 and a pEC50 of CXCL11 for β-arrestin2-YFP recruitment to CXCR7-RLuc (BRET, HEK293T) of 8.5.
